From article PMC4923907

Target: GG-SpaA E269A mutant, residues 35-302 (Lactobacillus rhamnosus GG (ATCC 53103))
Test: SEC; size-exclusion chromatography of purified E269A protein, Sephacryl S-200 26/60, 20 mM Tris pH 7.5, 150 mM NaCl, 1 mM EDTA; two forms recovered, trimeric (E1) and monomeric (E2)

stoichiometry N: 3
Substance: GG-SpaA E269A mutant, residues 35-302 (domain or fragment)
